Measured values reported in patent US20220251192A1 (Memorial Sloan Kettering, published 2022).
Numbering of substitutions follows the chain as printed. Blank lines part the entries; values can stand above or below the binder they belong to.

Biological target: T1, CD33 (UniProt P20138 18-259, limits assumed)
T1 construct: CD33 protein used as the active surface in the Biacore assay (about 1000 RU); also called Siglec-3; SIGLEC3
Experiment: SPR, Biacore T-200, CD33 amine-coupled on CM5 chip, antibody as analyte (31-500 nM)
Procedure: To determine whether humanized anti-CD33 My96 antibodies bind to CD33 with equal affinity as the chimeric form, surface plasmon resonance assay using Biacore T-200 was performed. Biacore T-200 Biosensor, CM5 sensor chip, and related reagents were purchased from GE Healthcare. CD33 as the active surfaces and blank as the reference were immobilized onto the CM5 sensor chip at around 1000 RU (response units) using the Amino Coupling kit (GE Healthcare). CD33 antibodies and relevant control antibodies were diluted in HBS-EP buffer (0.01 M HEPES pH 7.4, 0.15 M NaCl, 3 mM EDTA, 0.05% v/v Surfactant P20) at varying concentrations (31-500 nM) prior to analysis. Samples were injected over the sensor surface at a flow rate of 30 μL/min over 1 min. Following completion of the association phase, dissociation was monitored in HBS-EP buffer for 3 min at the same flow rate or for 30 minutes at 37° C. for antibodies with slow koff. At the end of each cycle, the surface was regenerated using 10 mM NaOH at a flow rate of 50 μL/min over 30 sec. The biosensor curves obtained following injection of the samples over active surface were subtracted from the control curves obtained with the samples injected over reference surface prior to kinetics analysis. The data were analyzed using the Biacore T-200 evaluation software. As shown in the Table below, the humanized anti-CD33 My96 antibodies bound with similar kₒₙ and koff as the chimeric form of the antibodies.

T1 sequence (P20138 18-259 limits assumed): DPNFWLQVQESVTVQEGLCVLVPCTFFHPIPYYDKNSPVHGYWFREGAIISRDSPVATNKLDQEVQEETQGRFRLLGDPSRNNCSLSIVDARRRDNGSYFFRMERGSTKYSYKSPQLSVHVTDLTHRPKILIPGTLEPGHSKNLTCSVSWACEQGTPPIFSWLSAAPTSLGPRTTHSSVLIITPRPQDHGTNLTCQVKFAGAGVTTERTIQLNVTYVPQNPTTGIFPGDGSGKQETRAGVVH

B1: chMy96 (antibody, V domains shown)
VH: QVQLQQPGAEVVKPGASVKMSCKASGYTFTSYYIHWIKQTPGQGLEWVGVIYPGNDDISYNQKFKGKATLTADKSSTTAYMQLSSLTSEDSAVYYCAREVRLRYFDVWGAGTTVTVSS
VL: NIMLTQSPSSLAVSAGEKVTMSCKSSQSVFFSSSQKNYLAWYQQIPGQSPKLLIYWASTRESGVPDRFTGSGSGTDFTLTISSVQSEDLAIYYCHQYLSSRTFGGGTKLEIK
notes: also called chimeric form of My96; chimeric anti-CD33 antibody
Kd: 0.321 pM
koff: 2.38e-07 s⁻¹
kon: 739000 M⁻¹ s⁻¹

B2: My96-H1L2 (antibody, human IgG1, V domains shown)
VH: QVQLVQSGAEVKKPGASVKVSCKASGYTFTSYYMHWVRQAPGQGLEWMGVIYPGNDDISYAQKFQGRVTMTADTSTSTVYMELSSLRSEDTAVYYCAREVRLRYFDVWGAGTTVTVSS
VL: NIVLTQSPDSLAVSLGERATINCKSSQSVFFSSSQKNYLAWYQQKPGQPPKLLIYWASTRESGVPDRFSGSGSGTDFTLTISSLQAEDVAVYYCHQYLSSRTFGGGTKLEIK
notes: Humanized My96 IgG (human IgG1 frameworks), expressed in DG44 cells; also called humanized My96 VH-1/VL-2
Kd: 0.218 pM
koff: 1.03e-07 s⁻¹
kon: 473000 M⁻¹ s⁻¹

B3: My96-H3L2 (antibody, human IgG1, V domains shown)
VH: B2 VH with M34I, M70I, T74K, T76A, S77T, V79A, A110Q, T113L
VL: B2 VL
notes: Humanized My96 IgG (human IgG1 frameworks), expressed in DG44 cells; also called hMy96 L2H3 (variable domains as in BsAb BC248); humanized My96 VH-3/VL-2
Kd: 0.294 pM
koff: 1.6e-07 s⁻¹
kon: 543000 M⁻¹ s⁻¹

B6: My96-H1L1 (antibody, human IgG1, V domains shown)
VH: B2 VH
VL: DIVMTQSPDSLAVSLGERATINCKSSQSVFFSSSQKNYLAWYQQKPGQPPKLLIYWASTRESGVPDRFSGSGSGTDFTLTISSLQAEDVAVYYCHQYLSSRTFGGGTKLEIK
notes: Humanized My96 IgG (CDRs grafted onto human IgG1 frameworks), expressed in DG44 cells; also called hMy96 H1L1; humanized My96 VH-1/VL-1
Kd: 0.321 pM
koff: 1.44e-07 s⁻¹
kon: 447000 M⁻¹ s⁻¹

B7: My96-H3L3 (antibody, human IgG1, V domains shown)
VH: B2 VH with M34I, M70I, T74K, T76A, S77T, V79A, A110Q, T113L
VL: B2 VL with K45R, S83R, L109V
notes: Humanized My96 IgG (human IgG1 frameworks), expressed in DG44 cells; also called humanized My96 VH-3/VL-3
Kd: 0.324 pM
koff: 2.03e-07 s⁻¹
kon: 625000 M⁻¹ s⁻¹

B8: My96-H1L3 (antibody, human IgG1, V domains shown)
VH: B2 VH
VL: B2 VL with K45R, S83R, L109V
notes: Humanized My96 IgG (human IgG1 frameworks), expressed in DG44 cells; also called humanized My96 VH-1/VL-3
Kd: 0.88 pM
koff: 4.95e-07 s⁻¹
kon: 563000 M⁻¹ s⁻¹

B9: My96-H2L1 (antibody, human IgG1, V domains shown)
VH: B2 VH with A61N, T74K
VL: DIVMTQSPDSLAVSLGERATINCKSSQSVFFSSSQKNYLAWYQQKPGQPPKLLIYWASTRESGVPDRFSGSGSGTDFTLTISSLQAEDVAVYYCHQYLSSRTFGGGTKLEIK
notes: Humanized My96 IgG (human IgG1 frameworks), expressed in DG44 cells; also called hMy96 L1H2 (variable domains as in BsAb BC257); humanized My96 VH-2/VL-1
Kd: 2.42 pM
koff: 1.51e-06 s⁻¹
kon: 623000 M⁻¹ s⁻¹

Further lines, results first:

Kd: 0.273 pM
koff: 1.42e-07 s⁻¹
kon: 520000 M⁻¹ s⁻¹
B4: My96-H2L2 (antibody, human IgG1, V domains shown)
VH: B2 VH with A61N, T74K
VL: B2 VL
notes: Humanized My96 IgG (human IgG1 frameworks), expressed in DG44 cells; also called humanized My96 VH-2/VL-2

Kd: 0.00645 pM
koff: 3.63e-09 s⁻¹
kon: 563000 M⁻¹ s⁻¹
B5: My96-H3L1 (antibody, human IgG1, V domains shown)
VH: B2 VH with M34I, M70I, T74K, T76A, S77T, V79A, A110Q, T113L
VL: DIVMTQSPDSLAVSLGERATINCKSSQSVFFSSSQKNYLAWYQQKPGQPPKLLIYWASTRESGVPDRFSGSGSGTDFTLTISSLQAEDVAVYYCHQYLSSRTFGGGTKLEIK
notes: Humanized My96 IgG (human IgG1 frameworks), expressed in DG44 cells; also called hMy96 L1H3 (variable domains as in BsAb BC269); humanized My96 VH-3/VL-1

Kd: 0.143 pM
koff: 9.16e-08 s⁻¹
kon: 641000 M⁻¹ s⁻¹
B10: My96-H2L3 (antibody, human IgG1, V domains shown)
VH: B2 VH with A61N, T74K
VL: B2 VL with K45R, S83R, L109V
notes: Humanized My96 IgG (human IgG1 frameworks), expressed in DG44 cells; also called humanized My96 VH-2/VL-3
